Eight molecules from article doi:10.1101/2021.03.25.436565 can be followed below.

Common to all, as to assay: EMSA
(A gel shift assay detects complexes by their altered migration in electrophoresis.)

The target in data set [1] is T1, CSB-HD (helicase-like domain) (human, UniProt Q03468 498-1002).
Data set [2] addresses T1, CSB-HD (helicase-like domain). This is another data set of the same source.
For data set [3] the target is unchanged. The source holds these as a separate data set.
Data set [4] has the same target. This is another data set of the same source.
Data set [5] has the same target. The source holds these as a separate data set.

Read-outs that look alike come from different tables or passages of the source.

As usually defined, the Kd is the free concentration of one partner at which half of the binding sites on the other are occupied at equilibrium, for simple one-to-one binding.

T1 sequence (Q03468 498-1002): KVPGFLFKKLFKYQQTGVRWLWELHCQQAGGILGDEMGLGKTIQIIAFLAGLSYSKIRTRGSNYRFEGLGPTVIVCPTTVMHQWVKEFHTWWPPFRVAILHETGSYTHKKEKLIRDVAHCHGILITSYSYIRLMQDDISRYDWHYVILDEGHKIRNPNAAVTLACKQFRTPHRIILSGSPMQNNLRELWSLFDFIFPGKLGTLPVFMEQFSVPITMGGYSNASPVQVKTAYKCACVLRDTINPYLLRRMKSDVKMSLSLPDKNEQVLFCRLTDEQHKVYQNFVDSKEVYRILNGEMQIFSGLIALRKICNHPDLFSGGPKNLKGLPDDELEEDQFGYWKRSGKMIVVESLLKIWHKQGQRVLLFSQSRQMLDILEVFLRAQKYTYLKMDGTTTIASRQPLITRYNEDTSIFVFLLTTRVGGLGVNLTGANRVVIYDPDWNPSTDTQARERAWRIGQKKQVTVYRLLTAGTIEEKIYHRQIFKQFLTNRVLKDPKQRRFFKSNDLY

For “5'-tailed rDNA, annealed in KCl (intermolecular G4)”, in data set [1], the equilibrium dissociation constant (Kd) stood at 0.557 nM. This counts as sub-nanomolar.

In data set [1], 3'-tailed rDNA gave a Kd of 0.176 nM. ATAATTATAAATAAATAATGGGGTTTTGGGG (structured_DNA) [5'-tailed O. nova d(G4T4G4)] came in with a Kd in data set [2] of 0.00988 nM. With ATAATTATAAATAAATAATAGGGTCGGGGGGTGGGGCCCGGGCCGGGG (structured_DNA) [5'-tailed rDNA-2], binding in data set [3] was characterised by a dissociation constant (Kd) of 0.36 nM. This lies in the sub-nanomolar range.

ATAATTATAAATAAATAATAGGGAGGGAGACGGGGGGG (structured_DNA) [5'-tailed rDNA-3]: the affinity in data set [3], expressed as Kd, was 0.977 nM.

Regarding TGAGGGTGGGTAGGGTGGGTAA (structured_DNA) [untailed c-MYC], the binding result in data set [4] was “no binding”. For AAATGGGTGGGTAGGGTGGGTATAATTATAAATAAATAATA (structured_DNA) [3'-tailed c-MYC], the binding result in data set [5] was “no binding”. AGGGTCGGGGGGTGGGGCCCGGGCCGGGG (structured_DNA) [untailed rDNA-2]: the binding result in data set [4] is listed as “no binding”.
